In US20220064331A1 (Genentech, published 2022):

Tests used:
Test in all cases: FACS on transfected HEK293T cells
[1] = molecular target: T1, rabbit KLB (+N-ter FLAG) (rabbit)
T1 construct: expressed from KLB cDNA on HEK293T cells and read by FACS
T1 chain: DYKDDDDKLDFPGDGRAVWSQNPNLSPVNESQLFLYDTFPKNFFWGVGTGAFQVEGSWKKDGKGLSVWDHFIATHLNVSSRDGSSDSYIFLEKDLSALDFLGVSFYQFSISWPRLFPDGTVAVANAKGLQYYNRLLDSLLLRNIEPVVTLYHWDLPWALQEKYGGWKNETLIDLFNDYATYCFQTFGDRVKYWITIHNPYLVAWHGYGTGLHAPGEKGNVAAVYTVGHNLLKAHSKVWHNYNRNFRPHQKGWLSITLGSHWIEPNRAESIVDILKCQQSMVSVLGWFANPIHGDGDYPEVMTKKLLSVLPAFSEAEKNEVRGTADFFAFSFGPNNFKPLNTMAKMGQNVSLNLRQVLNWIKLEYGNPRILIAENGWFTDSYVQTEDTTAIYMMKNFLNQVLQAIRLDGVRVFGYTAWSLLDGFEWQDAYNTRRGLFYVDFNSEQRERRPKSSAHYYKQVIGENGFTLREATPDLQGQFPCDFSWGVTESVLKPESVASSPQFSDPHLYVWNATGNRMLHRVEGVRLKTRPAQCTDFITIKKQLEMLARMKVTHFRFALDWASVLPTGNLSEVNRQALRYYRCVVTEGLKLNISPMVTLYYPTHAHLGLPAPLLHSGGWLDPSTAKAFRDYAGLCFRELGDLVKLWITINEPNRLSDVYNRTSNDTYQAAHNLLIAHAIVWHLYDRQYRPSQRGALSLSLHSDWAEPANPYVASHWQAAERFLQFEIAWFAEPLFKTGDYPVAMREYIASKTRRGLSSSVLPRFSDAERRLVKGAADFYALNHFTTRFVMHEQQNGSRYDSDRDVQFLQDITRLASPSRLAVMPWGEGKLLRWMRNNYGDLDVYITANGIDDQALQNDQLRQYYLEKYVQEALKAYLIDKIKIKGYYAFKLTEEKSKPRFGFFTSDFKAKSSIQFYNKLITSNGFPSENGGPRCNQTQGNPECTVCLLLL
Description: (§1) Species cross reactivity of the disclosed anti-KLB antibodies were analyzed by FACS analysis using KLB cDNA from mouse, rat, rabbit, cynomolgus monkey and rhesus monkey cloned into pRK mammalian expression vectors transiently transfected into HEK293T cells. The KLB extracellular domain polypeptide sequences that were expressed are as follows: […]

[2] = molecular target: T2, mouse KLB (mouse, UniProt Q99N32 53-990)
T2 construct: expressed from KLB cDNA on HEK293T cells and read by FACS; also called msKLB
T2 sequence: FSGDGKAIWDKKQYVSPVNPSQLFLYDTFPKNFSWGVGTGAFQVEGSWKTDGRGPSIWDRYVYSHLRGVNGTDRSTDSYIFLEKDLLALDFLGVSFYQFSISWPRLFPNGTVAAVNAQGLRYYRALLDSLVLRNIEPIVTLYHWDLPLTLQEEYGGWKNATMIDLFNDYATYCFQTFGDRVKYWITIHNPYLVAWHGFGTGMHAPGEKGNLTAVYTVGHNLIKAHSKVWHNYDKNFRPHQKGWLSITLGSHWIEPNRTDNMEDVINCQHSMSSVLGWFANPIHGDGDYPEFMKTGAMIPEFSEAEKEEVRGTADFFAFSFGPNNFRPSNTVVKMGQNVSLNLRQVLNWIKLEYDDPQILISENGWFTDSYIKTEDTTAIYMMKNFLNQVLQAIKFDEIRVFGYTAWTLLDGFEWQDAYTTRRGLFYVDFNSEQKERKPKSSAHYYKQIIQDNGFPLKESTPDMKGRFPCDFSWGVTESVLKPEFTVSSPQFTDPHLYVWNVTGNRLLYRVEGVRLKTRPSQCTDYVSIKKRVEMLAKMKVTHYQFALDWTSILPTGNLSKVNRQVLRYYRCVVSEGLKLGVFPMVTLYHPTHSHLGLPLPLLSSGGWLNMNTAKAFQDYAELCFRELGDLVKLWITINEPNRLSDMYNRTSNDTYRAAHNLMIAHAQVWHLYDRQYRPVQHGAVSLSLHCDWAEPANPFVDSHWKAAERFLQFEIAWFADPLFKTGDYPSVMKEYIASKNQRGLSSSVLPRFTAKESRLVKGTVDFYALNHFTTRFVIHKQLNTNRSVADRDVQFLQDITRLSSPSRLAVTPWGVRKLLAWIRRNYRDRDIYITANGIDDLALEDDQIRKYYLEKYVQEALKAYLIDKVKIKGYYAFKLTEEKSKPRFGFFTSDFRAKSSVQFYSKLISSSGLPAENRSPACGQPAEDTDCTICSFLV
Description: as §1

[3] = molecular target: T3, rhesus monkey KLB (+N-ter FLAG) (rhesus monkey, UniProt Q86Z14 53-992 (human entry))
T3 construct: expressed from KLB cDNA on HEK293T cells and read by FACS
T3 chain: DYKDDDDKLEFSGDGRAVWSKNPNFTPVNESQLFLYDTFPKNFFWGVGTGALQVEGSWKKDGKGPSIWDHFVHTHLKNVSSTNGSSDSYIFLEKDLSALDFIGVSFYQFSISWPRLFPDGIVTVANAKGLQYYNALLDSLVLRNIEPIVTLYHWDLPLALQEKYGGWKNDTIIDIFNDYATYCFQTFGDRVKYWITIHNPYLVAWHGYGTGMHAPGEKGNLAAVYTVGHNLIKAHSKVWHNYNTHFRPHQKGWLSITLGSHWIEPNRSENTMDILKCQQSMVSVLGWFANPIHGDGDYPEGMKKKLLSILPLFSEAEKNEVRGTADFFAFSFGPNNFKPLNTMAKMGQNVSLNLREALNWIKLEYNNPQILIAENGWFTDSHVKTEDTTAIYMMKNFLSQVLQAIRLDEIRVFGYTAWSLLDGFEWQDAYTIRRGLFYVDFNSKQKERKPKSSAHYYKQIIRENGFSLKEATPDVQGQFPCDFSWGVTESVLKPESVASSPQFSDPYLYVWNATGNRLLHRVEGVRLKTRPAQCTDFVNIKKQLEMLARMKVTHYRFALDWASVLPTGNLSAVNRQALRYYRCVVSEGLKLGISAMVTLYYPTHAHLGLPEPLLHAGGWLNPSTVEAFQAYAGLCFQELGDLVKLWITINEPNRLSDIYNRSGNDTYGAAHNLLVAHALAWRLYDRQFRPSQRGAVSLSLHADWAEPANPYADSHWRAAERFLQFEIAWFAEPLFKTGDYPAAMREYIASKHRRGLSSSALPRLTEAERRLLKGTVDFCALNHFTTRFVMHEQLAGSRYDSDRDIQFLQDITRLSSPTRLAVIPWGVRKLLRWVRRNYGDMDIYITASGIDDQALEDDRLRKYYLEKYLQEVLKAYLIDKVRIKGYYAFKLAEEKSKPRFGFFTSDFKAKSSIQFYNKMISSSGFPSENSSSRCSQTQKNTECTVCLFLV
Description: as §1

Row | Binder | binding result [1] | binding result [2] | binding result [3]
1 | 8E1 (antibody, V domains shown, murine hybridoma-derived anti-KLB antibody) VH: EVQLQQSGAELVKPGASVKLSCTAADFNIKDTYMHWVKQRPEQGLEWIGRIDPSNGNAKYDPKFQGKASITADSSSNTAYLHLSSLTSEDTAVYYCASRALGNGYALGYWGQGTSVTVSS VL: DIQMTQSSSYLSVSLGGSVTITCKASDHINNWLAWYQQKPGNAPRLLIYGTTNLETGVPSRFSGSGSGRDYILSITSLQSEDVASYYCQQYWNTPFTFGSGTKLEIK | binds | no binding | binds
2 | 25F7 (antibody, V domains shown, murine hybridoma-derived anti-KLB antibody) VH: EVQLQQSGAELLKPGASVRLSCTASGFNIQDTFTHWVRQRPEQGLEWIGRIDPSNGNTKYDPKFQGKAKILADTSSNTAYLQLIGLTSEDTAVYYCASRALGNGYAMDYWGQGTSVTVSS VL: DIQMTQSSSYLSVSLGGRVTITCKASDHINNWLAWYQQKPGNAPRLLISGASNLETGIPSRFSGSGSGKDYTLTITSLQTEDVATYYCQQYWNTPFTFGSGTKLEIK | – | no binding | binds
3 | 12B8 (antibody, V domains shown, murine hybridoma-derived anti-KLB antibody) VH: QIQLVQSGPELKKPGETAKISCKASGYAFSNYGMNWVKQAPGKDLKWMGWIDTDTGEATYTDDFKGRFVFSLETSASTAYLQINNLKNEDMATYFCAREEYGLFGFPYWGHGTLVTVSA VL: DIQMTQSSSSFSVSLGDRVTITCKASEDIYNRLAWYQQKPGSAPRLLISAATSLETGVPSRFSGSGSGKDYTLSITSLQTEDVATYYCQQYWSNPLTFGAGTKLEIK | binds | no binding | binds
4 | 24A1 (antibody, V domains shown, murine hybridoma-derived anti-KLB antibody) VH: QVQLKQSGAELVRPGTSVTLSCKASGYTFTDYEMHWMKQTPVYGLEWIGAIWPENADSVYNQKFKGKVTLTADKSSSTAYMDLRSLTSEDSAVYYCTREGGNYWGQGTTLTVSS VL: not shown | binds | binds | binds
5 | 8C5 (antibody, V domains shown, murine hybridoma-derived anti-KLB antibody; also called KLBmAb1) VH: QVQLKQSGPGLVQPSQSLSVACTVSDFSLTTYGVHWVRQSPGKGLEWLGVIWSGGSTDYNAAFISRLTISKDNSKSQVFFKMNSLQTTDTAIYYCARDYGSTYVDAIDYWGQGTSVTVSS VL: DIVLTQSPTSLAVSLGQRATISCRASESVESYGNRYMTWYQQKPGQPPKLLIYRAANLQSGIPARFSGSGSRTDFTLTIDPVEADDVATYYCQQSNEDPWTFGGGTKVEIK | no binding | binds | binds
6 | 5F8 (antibody, V domains shown, murine hybridoma-derived anti-KLB antibody) VH: EVQLQQSGTELVRPGASVKLSCTSSDFNIKDTYIHWVKQRPEQGLDWLGRIDPANGNTKYDPKFQGKAAMTSDTSSNTAYLRLSSLTSEDTAVYYCASSGNYGAMDYWGQGTSVTVSS VL: ESVLTQSPALMSASLGEKVTMTCRASSSVNHMYWYQQKSDASPKLWIYYTSTLAPGVPARFSGSGSGNSYSLTISSMEGEDAATYYCQQFTISPSMYTFGGGTKLEIK | binds | no binding | binds
7 | 12A11 (antibody, V domains shown, murine hybridoma-derived anti-KLB antibody; also called KLBmAb2) VH: EVKFLESGGGLVQPGGSLRLSCAVSGIDFSRYWMSWVRQAPGKGLEWIGEISPDSSTINYTPSLKDKFVISRDNAKNTLYLQMSKVRSADTALYYCARPSPALDYWGQGTLVTVSA VL: DIVMTQSPATLSVTPGDRVSLSCRASQSISDYVYWYQQKSHESPRLLIIYASQSISGIPSRFSGSGSGSDFTLSINSVEPEDVGVYYCQNGHNFPYTFGGGTKLEIK | binds | – | binds
8 | 8H7 (antibody, V domains shown, murine hybridoma-derived anti-KLB antibody) VH: QVQLQQPGAEIVKPGASVRLSCKASGYSFTSYWIHWVKQRPGQGLEWIGEIDPSVSNSNYNQKFKGKATLTADKSSSTAYMQLSGLTSEDSAVYFCVRLGVMVYGSSPFWFAYWGQGTLVTVSA VL: DIVMTQSQKFMSTSVGDRVSITCKASQFVSDAVAWYQQKPGQSPKLLICSASYRYTGVPDRFTGSGSGTDFTFTISSVRTEDLAVYYCQQHYIVPYTFGGGTTLEIE | binds | – | binds
9 | 21H3 (antibody, V domains shown, murine hybridoma-derived anti-KLB antibody) VH: QVQLQQPGAEIVKPGASVRLSCKASGYSFTSYWIHWVKQRPGQGLEWIGEIDPSVSNSNYNQKFKGKATLTADKSSSTAYMQLSGLTSEDSAVYFCVRLGVMVYGSSPFWFAYWGQGTLVTVSA VL: DIVMTQSQKFMSTSVGDRVSITCKASQFVSDAVAWYQQKPGQSPKLLICSASYRYTGVPDRFTGSGSGTDFTFTISSVRTEDLAVYYCQQHYIVPYTFGGGTTLEIE | binds | – | binds
10 | 14C6 (antibody, V domains shown, murine hybridoma-derived anti-KLB antibody) VH: QIQLQQSGAELMKPGASVRMSCKASGYTFSSYWIEWVKQRSGHGLEWIGEIFPGGGSTIYNENFRDKATFTADTSSNTAYMQLSSLTSEDSAVYFCARRGYYDAAWFDYWGQGTLVTVSA VL: QIVLTQSPAIMSASPGERVTLTCSASSSLSSSYLYWYQQKPGSSPKLWIYGASNLASGVPGRFSGSGSGTSYSLTISSMEAEDAASYFCHQWSSYPLTFGSGTKLELK | binds | binds | binds
